Consider two molecules from PMC12710124, “Pleomorphism in Wild-Type and Engineered PP7 Virus-Like Particles” (Small (Weinheim an der Bergstrasse, Germany), 2025).

By stoichiometry N is commonly meant a count of units in the complex or per binding partner.

Values joined by “and” are separate entries in the source; they are usually repeats but may differ in a detail not shown here. Equal values may be shown once. Read-outs that look alike come from different tables or passages of the source.

What all share (assay): cryo-EM structure; 3D reconstruction of purified VLPs self-assembled in the bacterial expression host; closed cages (T = 3, T = 4, D5, D5E, C2, C3) and tubes
The target of data set [1] is PP7-AY-PP7, PP7 coat protein dimer with AY linker (Pseudomonas phage PP7).
Data set [2] has the same target. The source holds these as a separate data set.
Data set [3] concerns the molecule itself.

For “PP7-AY-PP7, PP7 coat protein dimer with AY linker”, the stoichiometry N in data set [1] worked out at 87 copies; in data set [2] it was 102 copies.

B1: PP7 coat protein (wild-type, monomeric) (natural protein)
chain: MSKTIVLSVGEATRTLTEIQSTADRQIFEEKVGPLVGRLRLTASLRQNGAKTAYRVNLKLDQADVVDCSTSVCGELPKVRYTQVWSHDVTIVANSTEASRKSLYDLTKSLVATSQVEDLVVNLVPLGR
notes: Self-assembles in the expression host into VLPs; also called PP7 CP; PP7 capsid protein; source: bacterial expression host (E. coli), recombinantly expressed, purified as VLPs
For B1, the “stoichiometry N” value in data set [3] was 150 coat proteins and 174 copies and 204 copies.
